Test results: patent US20200317776A1 (published 2020)
Substitutions are numbered along the chain they refer to.

T1: human TREM2 expressed on cells (human, UniProt Q9NZC2 19-230)
T1 sequence: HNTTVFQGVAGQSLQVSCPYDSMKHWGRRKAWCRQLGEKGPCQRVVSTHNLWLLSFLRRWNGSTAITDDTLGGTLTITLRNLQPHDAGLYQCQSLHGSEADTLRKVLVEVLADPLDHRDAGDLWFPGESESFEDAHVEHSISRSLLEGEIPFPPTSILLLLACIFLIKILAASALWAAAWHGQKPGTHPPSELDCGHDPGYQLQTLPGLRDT

T2: cynomolgus monkey TREM2 Fc fusion (entire TREM2 ECD; only one Fc arm fused to TREM2) (cynomolgus monkey, UniProt Q9NZC2 19-174 (human entry))
T2 construct: also called cyno TREM2-Fc
T2 chain: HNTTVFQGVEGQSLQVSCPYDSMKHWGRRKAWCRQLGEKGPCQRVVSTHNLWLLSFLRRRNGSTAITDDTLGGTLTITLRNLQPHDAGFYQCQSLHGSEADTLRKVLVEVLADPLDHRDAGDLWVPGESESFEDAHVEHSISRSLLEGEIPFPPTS

T3: human TREM2 Fc fusion (entire TREM2 ECD; only one Fc arm fused to TREM2) (human, UniProt Q9NZC2 19-174)
T3 construct: also called huTREM2-Fc; recombinant hTREM2
T3 sequence: T2 chain with E10A, R60W, F89L, V125F

B1: AL2p-46 (antibody, V domains shown)
VH: QVQLVQSGAEVKKPGSSVKVSCKASGYAFSSDWMNWVRQAPGQGLEWMGRIYPGEGDTNYARKFQGRVTITADESTSTAYMELSSLRSEDTAVYYCARLLRNKPGESYAMDYWGQGTLVTVSS
VL: DVVMTQTPLSLSVTPGQPASISCRTSQSLVHSNQYTYLHWYLQKPGQSPQLLIYKVSNRVSGVPDRFSGSGSGTDFTLKISRVEAEDVGVYYCSQSTRVPYTFGQGTKLEIK
notes: Fab and IgG formats under one id
B2: AL2p-57 (antibody, V domains shown)
VH: B1 VH with Q1E, D32H, R62Q, Q65H
VL: B1 VL
notes: as for B1
B3: AL2p-54 (antibody, V domains shown)
VH: B1 VH with D32H, R62Q, Q65H
VL: B1 VL
notes: as for B1
B4: AL2p-49 (antibody, V domains shown)
VH: B1 VH with Q1E, Q65H
VL: B1 VL
notes: as for B1
B5: AL2p-51 (antibody, V domains shown)
VH: B1 VH with D32H, R62Q, Q65H, K103Q
VL: B1 VL
notes: as for B1
B6: AL2p-50 (antibody, V domains shown)
VH: B1 VH with D32H, R62Q, Q65H, K103Q
VL: B1 VL with Q34A
notes: as for B1
B7: AL2p-56 (antibody, V domains shown)
VH: B1 VH with Q1E, D32H, R62Q, Q65H
VL: B1 VL with Q34A
notes: same VH/VL entries as AL2p-55; Fab and IgG formats under one id
B8: AL2p-53 (antibody, V domains shown)
VH: B1 VH with Q1E, D32H, R62Q, Q65H, K103Q
VL: B1 VL
notes: as for B1
B9: AL2p-48 (antibody, V domains shown)
VH: B1 VH with Q65H
VL: B1 VL
notes: as for B1
B10: AL2p-52 (antibody, V domains shown)
VH: B1 VH with Q1E, D32H, R62Q, Q65H, K103Q
VL: B1 VL with Q34A
notes: as for B1
B11: AL2p-55 (antibody, V domains shown)
VH: B1 VH with Q1E, D32H, R62Q, Q65H
VL: B1 VL with Q34A
notes: same VH/VL entries as AL2p-56; Fab and IgG formats under one id
B12: AL2p-h36 (antibody, human IgG1, V domains shown)
VH: EVQLLESGGGLVQPGGSLRLSCAASGYAFSSSWMNWVRQAPGKGLEWIGRIYPGDGDTNYAQKFQGRATISADTSKNTAYLQMNSLRAEDTAVYYCARLLRNQPGESYAMDYWGQGTLVTVSS
VL: B1 VL with T25S, Q34G, V60F, V88L, Y92F
B13: AL2p-h29 (antibody, human IgG1, V domains shown)
VH: B1 VH with S16A, D32S, M48I, E55D, R62Q, V68A, I70M, E74T, K103Q
VL: B1 VL with T25S, Q34G, V60F, V88L, Y92F
B14: AL2p-h28 (antibody, human IgG1, V domains shown)
VH: B1 VH with S16A, D32S, M48I, E55D, R62Q, V68A, I70L, E74T, Y95F, K103Q
VL: B1 VL with T25S, Q34G, V60F, V88L, Y92F

target: T1, human TREM2 expressed on cells; assay: cell-based or functional assay

| Binder | DC viability (AUC) | Mac viability (AUC) |
| --- | --- | --- |
| B1 | 597000 | 6040 |
| B2 | 506000 | -3560 |
| B3 | 570000 | -7640 |
| B4 | 754000 | 15100 |
| B5 | 259000 | -11200 |
| B6 | 286000 | -10400 |
| B7 | 643000 | -7620 |
| B8 | 234000 | -10200 |
| B9 | 770000 | 23600 |
| B10 | 283000 | -13500 |
| B11 | 631000 | -5280 |

target: T4, human TREM2/DAP12 fusion protein (human, UniProt O43914 41-113, limits assumed); assay: cell-based or functional assay
T4 sequence (O43914 other isoform, or with tags, fused parts or gaps limits assumed): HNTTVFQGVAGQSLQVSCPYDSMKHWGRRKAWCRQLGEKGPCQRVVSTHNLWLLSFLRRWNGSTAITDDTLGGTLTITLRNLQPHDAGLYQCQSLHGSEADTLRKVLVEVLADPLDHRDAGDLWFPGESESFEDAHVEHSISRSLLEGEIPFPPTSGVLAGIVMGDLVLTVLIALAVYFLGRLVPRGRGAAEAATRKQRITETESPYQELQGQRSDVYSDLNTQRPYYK

| Binder | BW Luc assay plate bound 7.3 nM IgG, FOC [FOC] | BW Luc assay soluble 7.3 nM IgG, FOC [FOC] |
| --- | --- | --- |
| B1 | 1.64 | 2.98 |
| B2 | 1.41 | 2.03 |
| B3 | 1.53 | 2.17 |
| B4 | 3.12 | 3.28 |
| B5 | 1.22 | 2.3 |
| B6 | 1.19 | 2.07 |
| B7 | 1.51 | 2.02 |
| B8 | 1.45 | 2.32 |
| B9 | 3.25 | 3.65 |
| B10 | 1.3 | 1.75 |
| B11 | 1.49 | 2.08 |

target: T1, human TREM2 expressed on cells; assay: FACS, human DCs
Description: (§1) To examine cell binding of affinity matured anti-TREM2 antibodies, both primary human monocyte derived dendritic cells and recombinant, human TREM2 expressing cells were utilized. For the latter, BW5147.G.1.4 (ATCC® TIB48™) and HEK293T cells stably expressing human TREM2 together with Dap12 using viral infection were established. For primary human monocyte derived dendritic cells, human monocytes were isolated from whole blood using RosetteSep Human monocyte enrichment cocktail (Stemcell technologies) and Ficoll centrifugation per manufacturer protocols. After lysing red blood cells with ACK lysing buffer, monocytes were resuspended in complete media (RPMI, 10% FBS, Pen/Strep, L-glutamine, HEPES, non-essential amino acid, Sodium pyruvate) with 100 ng/ml human GM-CSF (hu-GMCSF) and, human IL-4 (hu-IL-4) to differentiate dendritic cells for 6 days.
(§2) Cells were harvested by trypsinization (Hek293T) or scraping (BW and dendritic cells), washed in PBS, counted and plated on 96-well U bottom plates at […] cells/well. The plates were spun at 1,400 rpm for 3 minutes and primary TREM2 or control antibodies were added in FACS buffer (PBS+2% FBS) and incubated on ice for one hour. Cells were subsequently centrifuged as before and washed thrice with FACS buffer. Cells were then incubated with anti-human PE conjugated secondary antibody (BD Biosciences) in FACS buffer for 30 minutes on ice. Cells were again washed thrice with FACS buffer and analyzed on a BD FACS Canto or an Intellicyt Flow Cytometer. Binding was measured as mean fluorescence intensity in the APC channel.

| Binder | MFI [MFI] |
| --- | --- |
| B1 | 187 |
| B2 | 152 |
| B3 | 235 |
| B4 | 413 |
| B5 | 195 |
| B6 | 235 |
| B7 | 155 |
| B8 | 159 |
| B9 | 408 |
| B10 | 224 |
| B11 | 141 |

target: T4, human TREM2/DAP12 fusion protein; assay: cell-based or functional assay; remark: another data set of the same source

| Binder | Soluble luciferase activation at 10 µg/ml Fold over control [fold over control] |
| --- | --- |
| B12 | 4.13 |
| B13 | 5.8 |
| B14 | 5.59 |

Target: T2, cynomolgus monkey TREM2 Fc fusion …
Assay: BLI, Fab, monovalent

| Binder | Kd [nM] |
| --- | --- |
| B1 | 16.1 |
| B2 | 17.6 |
| B3 | 16.8 |
| B4 | 14.1 |
| B5 | 27.2 |
| B6 | 36.1 |
| B7 | 18.8 |
| B8 | 31.3 |
| B9 | 14.9 |
| B10 | 28 |
| B11 | 22.6 |

target: T3, human TREM2 Fc fusion (entire TREM2 …); assay: BLI, Fab, monovalent

| Binder | Kd [nM] |
| --- | --- |
| B1 | 13 |
| B2 | 17.8 |
| B3 | 13.9 |
| B4 | 11.6 |
| B5 | 21.2 |
| B6 | 23.9 |
| B7 | 18.7 |
| B8 | 21.1 |
| B9 | 11.2 |
| B10 | 27 |
| B11 | 18.5 |

target: T1, human TREM2 expressed on cells; assay: FACS, hTREM2 BW cells
Description: as §1, §2

| Binder | Kd [nM] |
| --- | --- |
| B1 | 1.33 |
| B2 | 1.83 |
| B3 | 2.3 |
| B4 | 1.15 |
| B5 | 1.92 |
| B6 | 1.8 |
| B7 | 2.01 |
| B8 | 1.72 |
| B9 | 1.4 |
| B10 | 2.42 |
| B11 | 2.05 |
